Measurements taken from the DeepSol protein solubility set.

assay: soluble on expression in E. coli; label from the status in PepcDB or PDB records

| Sequence | soluble on expression in E. coli |
| --- | --- |
| MVDVVMAPCSPVECRTAVVIDVLRATSTIVTALSNGASGVIPVKTIEEALEKKKEGVLICGERNAQKPKGFNLGNSPLEYRKEKISGKTIVLTTTNGTQVIEKIRSEEIIAASFLNLSAVVEYLKSKEDILLVCAGTNGRFSLEDFLLAGAIVKRLKRNDLGDGAHAAERYFESVENTREEIKKHSSHAKRLISLGFENDIEFCTTEDLFKTVPALVNGVFILKEFP | soluble |
| MVEATAQETDRPRFSFSIAAREGKARTGTIEMKRGVIRTPAFMPVGTAATVKALKPETVRATGADIILGNTYHLMLRPGAERIAKLGGLHSFMGWDRPILTDSGGFQVMSLSSLTKQSEEGVTFKSHLDGSRHMLSPERSIEIQHLLGSDIVMAFDECTPYPATPSRAASSMERSMRWAKRSRDAFDSRKEQAENAALFGIQQGSVFENLRQQSADALAEIGFDGYAVGGLAGGEGQDEMFRVLDFSVPMLPDDKPHYLMGVGKPDDIVGAVERGIDMFDCVLPTRSGRNGQAFTWDGPINIRNARFSEDLKPLDSECHCAVCQKWSRAYIHHLIRAGEILGAMLMTEHNIAFYQQLMQKIRDSISEGRFSQFAQDFRARYFARNS | soluble |
| MVEPGRIGGNQTRLAAVLLDVSTPNTLNADFDLMRSVAGITDARNEEIRAMLQAFIGRMSGVPPSVWGGLAAARFQDVVDRWNAESTRLYHVLHAIADTIRHNEAALREAGQIHARHIAAAGGDL | soluble |
| MVEVESDSVAERDRSSFLAGHDAIRLAKSCVDSPPERWYAALYQVYADLTKLRCWSNVEVVYSDSATFPTGLLGPLFEEDSMVQELHSAQCILGSERACFHVRCCIVGSPPSGRAINALSPQSETRTEERIITSRREPEVVIAVPMHAMLKLSNLDQALRMSSHIEGIVKNRHVADSSASTHSTDRQAGSRKSSVIFGFVDEDTTTAYYRIREGACESNDRREFSTDDIASCLAQERT | not soluble |
| MVFDTHLHTLFSTDSKMNIEEAIDAGEKKNLGIIITEHIDLNYPVKGEFVFDIDKYFKEYNKYRSNKVLLGVEIGMGEEIKEQNKSINDKYEFDYVLGSIHLLNGLDLYEKTIYKSSPKKEVFEMYFKTMLACLRCHEYIDSLAHIDYISRYAAYHDGEIYYNEYSDYIDEVLKFIVDREIVIEINTRRLNKKEVCENLMPIYKRYSELGGRFVTIGSDSHYKDSIGLNFKNALKMAENCNLKPVFFEKRLMKYA | not soluble |
| MVGPARPQIVLFGSSIVQMSFGHGGWGAILSEVYARKADIILRGYYGWNSSRALEVVDQVFPKDAAVQPSLVIVYFGGNDSMAPHSSGLGPHVPLTEYVDNMKKIALHLQSLSDFTRIIFLSSPPVDEAKVRQNQSPYLSEVIRTNDLCKTYSDACVELCQELGLEVVDLFSTFQKADDWKTVCFTDGIHLSAQGSKIVAGEILRVVKEAEWHPSLHWKSMPTEFADDSPYDLVSADGKQTVNSSEWTYFWEEQWD | soluble |
| MVGRELFKPVPSSTKPQSNASILARFRTAKSRHQPDRRGAQISANDRKSFVTRETPRTDSCFVSERLAMDDLVQIARCAGGKSVLRLTGVCLLTLLFAIASPAHSTHRPVDDLADVDLQLILAVDVSPSMSKVEQKVQRDGYVGAFRHADIARALKSGERGRIAVLYLEWAGPRQQTVVMPWTIVESLDDALILADRLAALPLTEGRGTSISGALSAAHALFAKSGLRSPRRVIDVSGDGPNNAGLPLQLVHDALTTGGVTINGLAISLRAADTLDSFGPHFIELYYESCVIGGSNAFVVTVENTADFANAIRKKLVNEIAGLSAKVQPATYRSHSRPVVLEHHHHHH | soluble |
| MVGVRMTKKVLIVEDNELNMKLFHDLLEAQGYETLQTREGLSALSIARENKPDLILMDIQLPEISGLEVTKWLKEDDDLAHIPVVAVTAFAMKGDEERIREGGCEAYISKPISVVHFLETIKRLLERQPA | soluble |
| MVHMSWFRRRRKSFFDLLEDIFREFEEEFRELEEEFEKLASRVQSRGEEFGKGPYIYGVRITIGPDGVPKVEEFGNIRMARGRPQIREEMEPLVDVIERDDEVWIVADIPGANKDKIKVRATEDKVVIKAENGKKYYKEVELPAKVDPKSAKASYRNGVLEIKLKKIKPAEEGTEVKVE | soluble |
| MVICLSTEISLVAATLNEIGNIATFLDKVEKELIYYNFEIIIVDDNSSDGTKEYLAERSLKDKNLHVIENPYRVGMLGSLKMGINSAKGKYCIVMDADLQHPPEAILSIIERLNHGCDIVVGSRYVNGGSAGDRNSYRALLSIGAQYLSYLFLRSARSTTDPMSGFFGFQTSMNHDFSYKNRFKLTDMGAKILLLLLAENQNCNVCDVGYVFRSRERGKSKIVSGMSFLERYMSELLDAMIVERQWKNRGCLEHHHHHH | not soluble |
| MVIDQTDPIYVLFHDEEWGVPVRDDKKLFELLVFSQALAEFSWPSILRRRDDFRKLFEEFDPSAIAQFTEKRLMSLRVNGCLILSEQKLRAIVENAKSVLKVKQEFGSFSNYCWRFVNHKPLRNGYRYGRQVPVKSPKAEYISKDMMQRGFRCVGPTVMYSFLQASGIVNDHLTACFRYQECNVETERETKSHETETKLDLHSPLLV | soluble |
| MVKDLLEERARELGLLFAWAPLDLPQEAEARHRAWLEAGRHGGMAYLEAPERFHPRKRFPWAKSALLLFAPYAYPDPGTPPGGLRVGRVARYAWTRDYHLVLGEALKALEETARGLGLKAKGYVDHGPLPERTLAALSGAGWIGKSGYFLSQAFGVHAFIGVLLTPLEVEAAPLHPSRCGRCARCLSACPTEALLGDGTLDARACVSYLTIEHKGPIPPSLWPGIGDWLFGCDLCGEACPWERFGKVWKALRPEPELAHPDLLDFFRLSGRAFGRKYAGTAFLRAGRARMARNALIVLFNLGLGEALFLEATRDPNPLVRRTALRALHLMGKPLDPFLQDPGLREEALALLGEAPEAVHLLQDGREAPGPEVKEQGA | not soluble |
| MVKITNNVHQFGYEPAEFLSKKLTFTDIVHPEDLDRIVKEMVAFLKNDIVYFEQDYRIFTKGGDIRWVYEKTILKTDDTGLPTLAKGYLLDITER | not soluble |
| MVKIVELQEKESLYYCTKDEDHFFDRKAFGLKGEKVQKIAVAFANADGGEILVGIADDKDEVIPEKRWQGQESTEAYNSVIQALSELVPSVDFRFDFLTRVNESRNYVLRVKINKGLSVHETAKKKIFLRQGAQSLPVTAPIKILELTHAKGIISEEDSLVNSASIDELDSSIELTKFLSELPIRAPDPITFLLKEKLVDSETWAPTVAAVLLFAENPSAELPKQCAIRIVRYDTDGEDIDRDALTEDNIAIEGSLYQQIQDAYSKIELFLSKNKVWKVEGLVETKYPKETIWEILVNTVIHRDYAISDNVLVSIFNNRIEFKSPGRFTGFVTAENILENRCSRNSKIVRILSKYKDSPNKDLGEGMNTAFQRMRSMGLRDPEILEDGNYVKIILRHSSNDDPETLIMKFIESNGEINNRQARDLTGIDRTEKVTYQFSKLRDKGLIQRKDSSTGLKSSWIAVLEHHHHHH | not soluble |
| MVKLENKPTIISTGTIVGPKEGEGPLKDYFDMIMTDDLYGEKTWELAESKMVETASQQAIQKAGKKLSDVNYMLGGDLINQIVPASFAARELAIPFLGIYGACSTMAEGLCIGSMLIDGGFADLVLSGTSSHYCTAERQFRFPLELGNQKPMTAQWTVTGAGSVLLAPNGDGPKVKYVTVGKVIDEGIDDGNNMGPAMAPAAIDTIYSYFEDTNDDPNSFDIIATGDLGTLGKQIAEDFLKEKGVDISKVYTDCGIEMFNLKEQDVHCGGSGCGCSATVFAGYIYDKLRKKEFNKVMLVSTGALLSPTSTLQKQTIPCVAHAVVIVNELEHHHHHH | not soluble |
| MVKQIESKTAFQEALDAAGDKLVVVDFSATWCGPCKMIKPFFHSLSEKYSNVIFLEVDVDDCQDVASECEVKCMPTFQFFKKGQKVGEFSGANKEKLEATINELV | soluble |
